# B1: Polycystin-2 (Homo sapiens), Q13563 (parent)
# chain: MVNSSRVQPQQPGDAKRPPAPRAPDPGRLMAGCAAVGASLAAPGGLCEQRGLEIEMQRIRQAAARDPPAGAAASPSPPLSSCSRQAWSRDNPGFEAEEEEEEVEGEEGGMVVEMDVEWRPGSRRSAASSAVSSVGARSRGLGGYHGAGHPSGRRRRREDQGPPCPSPVGGGDPLHRHLPLEGQPPRVAWAERLVRGLRGLWGTRLMEESSTNREKYLKSVLRELVTYLLFLIVLCILTYGMMSSNVYYYTRMMSQLFLDTPVSKTEKTNFKTLSSMEDFWKFTEGSLLDGLYWKMQPSNQTEADNRSFIFYENLLLGVPRIRQLRVRNGSCSIPQDLRDEIKECYDVYSVSSEDRAPFGPRNGTAWIYTSEKDLNGSSHWGIIATYSGAGYYLDLSRTREETAAQVASLKKNVWLDRGTRATFIDFSVYNANINLFCVVRLLVEFPATGGVIPSWQFQPLKLIRYVTTFDFFLAACEIIFCFFIFYYVVEEILEIRIHKLHYFRSFWNCLDVVIVVLSVVAIGINIYRTSNVEVLLQFLEDQNTFPNFEHLAYWQIQFNNIAAVTVFFVWIKLFKFINFNRTMSQLSTTMSRCAKDLFGFAIMFFIIFLAYAQLAYLVFGTQVDDFSTFQECIFTQFRIILGDINFAEIEEANRVLGPIYFTTFVFFMFFILLNMFLAIINDTYSEVKSDLAQQKAEMELSDLIRKGYHKALVKLKLKKNTVDDISESLRQGGGKLNFDELRQDLKGKGHTDAEIEAIFTKYDQDGDQELTEHEHQQMRDDLEKEREDLDLDHSSLPRPMSSRSFPRSLDDSEEDDDEDSGHSSRRRGSISSGVSYEEFQVLVRRVDRMEHSIGSIVSKIDAVIVKLEIMERAKLKRREVLGRLLDGVAEDERLGRDSEIHREQMERLVREELERWESDDAASQISHGLGTPVGLNGQPRPRSSRPSSSQSTEGMEGAGGNGSSNVHV
# Variants of: B1
# Conditions: with TRPC1, P48995-2
# TRPC1, P48995-2, sequence (P48995 other isoform, or with tags, fused parts or gaps): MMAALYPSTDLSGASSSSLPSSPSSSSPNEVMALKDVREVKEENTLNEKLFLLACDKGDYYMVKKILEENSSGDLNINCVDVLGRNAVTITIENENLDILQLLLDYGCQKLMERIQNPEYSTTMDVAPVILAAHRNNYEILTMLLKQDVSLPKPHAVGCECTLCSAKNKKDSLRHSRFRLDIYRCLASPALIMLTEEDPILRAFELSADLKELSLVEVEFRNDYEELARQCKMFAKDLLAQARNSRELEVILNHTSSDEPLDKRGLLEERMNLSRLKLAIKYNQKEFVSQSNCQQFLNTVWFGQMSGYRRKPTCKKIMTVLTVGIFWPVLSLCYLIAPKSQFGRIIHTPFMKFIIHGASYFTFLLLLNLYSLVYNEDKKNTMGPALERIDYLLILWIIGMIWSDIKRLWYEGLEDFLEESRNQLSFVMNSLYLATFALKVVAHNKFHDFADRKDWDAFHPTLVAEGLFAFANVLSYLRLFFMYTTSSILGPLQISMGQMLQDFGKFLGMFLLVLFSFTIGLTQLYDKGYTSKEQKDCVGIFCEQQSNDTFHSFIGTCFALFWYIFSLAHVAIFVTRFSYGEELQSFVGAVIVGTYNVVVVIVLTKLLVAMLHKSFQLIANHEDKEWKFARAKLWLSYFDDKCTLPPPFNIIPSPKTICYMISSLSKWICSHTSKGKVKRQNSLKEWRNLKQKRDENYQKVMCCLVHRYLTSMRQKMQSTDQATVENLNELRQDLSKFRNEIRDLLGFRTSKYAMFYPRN
row,Variant,effect of a mutation on the interaction
1,D886A,disrupting interaction

# Variants of: B1
# Conditions: with pkd1_human PKD1, P98161
# pkd1_human PKD1, P98161, sequence (P98161 whole entry, looked up): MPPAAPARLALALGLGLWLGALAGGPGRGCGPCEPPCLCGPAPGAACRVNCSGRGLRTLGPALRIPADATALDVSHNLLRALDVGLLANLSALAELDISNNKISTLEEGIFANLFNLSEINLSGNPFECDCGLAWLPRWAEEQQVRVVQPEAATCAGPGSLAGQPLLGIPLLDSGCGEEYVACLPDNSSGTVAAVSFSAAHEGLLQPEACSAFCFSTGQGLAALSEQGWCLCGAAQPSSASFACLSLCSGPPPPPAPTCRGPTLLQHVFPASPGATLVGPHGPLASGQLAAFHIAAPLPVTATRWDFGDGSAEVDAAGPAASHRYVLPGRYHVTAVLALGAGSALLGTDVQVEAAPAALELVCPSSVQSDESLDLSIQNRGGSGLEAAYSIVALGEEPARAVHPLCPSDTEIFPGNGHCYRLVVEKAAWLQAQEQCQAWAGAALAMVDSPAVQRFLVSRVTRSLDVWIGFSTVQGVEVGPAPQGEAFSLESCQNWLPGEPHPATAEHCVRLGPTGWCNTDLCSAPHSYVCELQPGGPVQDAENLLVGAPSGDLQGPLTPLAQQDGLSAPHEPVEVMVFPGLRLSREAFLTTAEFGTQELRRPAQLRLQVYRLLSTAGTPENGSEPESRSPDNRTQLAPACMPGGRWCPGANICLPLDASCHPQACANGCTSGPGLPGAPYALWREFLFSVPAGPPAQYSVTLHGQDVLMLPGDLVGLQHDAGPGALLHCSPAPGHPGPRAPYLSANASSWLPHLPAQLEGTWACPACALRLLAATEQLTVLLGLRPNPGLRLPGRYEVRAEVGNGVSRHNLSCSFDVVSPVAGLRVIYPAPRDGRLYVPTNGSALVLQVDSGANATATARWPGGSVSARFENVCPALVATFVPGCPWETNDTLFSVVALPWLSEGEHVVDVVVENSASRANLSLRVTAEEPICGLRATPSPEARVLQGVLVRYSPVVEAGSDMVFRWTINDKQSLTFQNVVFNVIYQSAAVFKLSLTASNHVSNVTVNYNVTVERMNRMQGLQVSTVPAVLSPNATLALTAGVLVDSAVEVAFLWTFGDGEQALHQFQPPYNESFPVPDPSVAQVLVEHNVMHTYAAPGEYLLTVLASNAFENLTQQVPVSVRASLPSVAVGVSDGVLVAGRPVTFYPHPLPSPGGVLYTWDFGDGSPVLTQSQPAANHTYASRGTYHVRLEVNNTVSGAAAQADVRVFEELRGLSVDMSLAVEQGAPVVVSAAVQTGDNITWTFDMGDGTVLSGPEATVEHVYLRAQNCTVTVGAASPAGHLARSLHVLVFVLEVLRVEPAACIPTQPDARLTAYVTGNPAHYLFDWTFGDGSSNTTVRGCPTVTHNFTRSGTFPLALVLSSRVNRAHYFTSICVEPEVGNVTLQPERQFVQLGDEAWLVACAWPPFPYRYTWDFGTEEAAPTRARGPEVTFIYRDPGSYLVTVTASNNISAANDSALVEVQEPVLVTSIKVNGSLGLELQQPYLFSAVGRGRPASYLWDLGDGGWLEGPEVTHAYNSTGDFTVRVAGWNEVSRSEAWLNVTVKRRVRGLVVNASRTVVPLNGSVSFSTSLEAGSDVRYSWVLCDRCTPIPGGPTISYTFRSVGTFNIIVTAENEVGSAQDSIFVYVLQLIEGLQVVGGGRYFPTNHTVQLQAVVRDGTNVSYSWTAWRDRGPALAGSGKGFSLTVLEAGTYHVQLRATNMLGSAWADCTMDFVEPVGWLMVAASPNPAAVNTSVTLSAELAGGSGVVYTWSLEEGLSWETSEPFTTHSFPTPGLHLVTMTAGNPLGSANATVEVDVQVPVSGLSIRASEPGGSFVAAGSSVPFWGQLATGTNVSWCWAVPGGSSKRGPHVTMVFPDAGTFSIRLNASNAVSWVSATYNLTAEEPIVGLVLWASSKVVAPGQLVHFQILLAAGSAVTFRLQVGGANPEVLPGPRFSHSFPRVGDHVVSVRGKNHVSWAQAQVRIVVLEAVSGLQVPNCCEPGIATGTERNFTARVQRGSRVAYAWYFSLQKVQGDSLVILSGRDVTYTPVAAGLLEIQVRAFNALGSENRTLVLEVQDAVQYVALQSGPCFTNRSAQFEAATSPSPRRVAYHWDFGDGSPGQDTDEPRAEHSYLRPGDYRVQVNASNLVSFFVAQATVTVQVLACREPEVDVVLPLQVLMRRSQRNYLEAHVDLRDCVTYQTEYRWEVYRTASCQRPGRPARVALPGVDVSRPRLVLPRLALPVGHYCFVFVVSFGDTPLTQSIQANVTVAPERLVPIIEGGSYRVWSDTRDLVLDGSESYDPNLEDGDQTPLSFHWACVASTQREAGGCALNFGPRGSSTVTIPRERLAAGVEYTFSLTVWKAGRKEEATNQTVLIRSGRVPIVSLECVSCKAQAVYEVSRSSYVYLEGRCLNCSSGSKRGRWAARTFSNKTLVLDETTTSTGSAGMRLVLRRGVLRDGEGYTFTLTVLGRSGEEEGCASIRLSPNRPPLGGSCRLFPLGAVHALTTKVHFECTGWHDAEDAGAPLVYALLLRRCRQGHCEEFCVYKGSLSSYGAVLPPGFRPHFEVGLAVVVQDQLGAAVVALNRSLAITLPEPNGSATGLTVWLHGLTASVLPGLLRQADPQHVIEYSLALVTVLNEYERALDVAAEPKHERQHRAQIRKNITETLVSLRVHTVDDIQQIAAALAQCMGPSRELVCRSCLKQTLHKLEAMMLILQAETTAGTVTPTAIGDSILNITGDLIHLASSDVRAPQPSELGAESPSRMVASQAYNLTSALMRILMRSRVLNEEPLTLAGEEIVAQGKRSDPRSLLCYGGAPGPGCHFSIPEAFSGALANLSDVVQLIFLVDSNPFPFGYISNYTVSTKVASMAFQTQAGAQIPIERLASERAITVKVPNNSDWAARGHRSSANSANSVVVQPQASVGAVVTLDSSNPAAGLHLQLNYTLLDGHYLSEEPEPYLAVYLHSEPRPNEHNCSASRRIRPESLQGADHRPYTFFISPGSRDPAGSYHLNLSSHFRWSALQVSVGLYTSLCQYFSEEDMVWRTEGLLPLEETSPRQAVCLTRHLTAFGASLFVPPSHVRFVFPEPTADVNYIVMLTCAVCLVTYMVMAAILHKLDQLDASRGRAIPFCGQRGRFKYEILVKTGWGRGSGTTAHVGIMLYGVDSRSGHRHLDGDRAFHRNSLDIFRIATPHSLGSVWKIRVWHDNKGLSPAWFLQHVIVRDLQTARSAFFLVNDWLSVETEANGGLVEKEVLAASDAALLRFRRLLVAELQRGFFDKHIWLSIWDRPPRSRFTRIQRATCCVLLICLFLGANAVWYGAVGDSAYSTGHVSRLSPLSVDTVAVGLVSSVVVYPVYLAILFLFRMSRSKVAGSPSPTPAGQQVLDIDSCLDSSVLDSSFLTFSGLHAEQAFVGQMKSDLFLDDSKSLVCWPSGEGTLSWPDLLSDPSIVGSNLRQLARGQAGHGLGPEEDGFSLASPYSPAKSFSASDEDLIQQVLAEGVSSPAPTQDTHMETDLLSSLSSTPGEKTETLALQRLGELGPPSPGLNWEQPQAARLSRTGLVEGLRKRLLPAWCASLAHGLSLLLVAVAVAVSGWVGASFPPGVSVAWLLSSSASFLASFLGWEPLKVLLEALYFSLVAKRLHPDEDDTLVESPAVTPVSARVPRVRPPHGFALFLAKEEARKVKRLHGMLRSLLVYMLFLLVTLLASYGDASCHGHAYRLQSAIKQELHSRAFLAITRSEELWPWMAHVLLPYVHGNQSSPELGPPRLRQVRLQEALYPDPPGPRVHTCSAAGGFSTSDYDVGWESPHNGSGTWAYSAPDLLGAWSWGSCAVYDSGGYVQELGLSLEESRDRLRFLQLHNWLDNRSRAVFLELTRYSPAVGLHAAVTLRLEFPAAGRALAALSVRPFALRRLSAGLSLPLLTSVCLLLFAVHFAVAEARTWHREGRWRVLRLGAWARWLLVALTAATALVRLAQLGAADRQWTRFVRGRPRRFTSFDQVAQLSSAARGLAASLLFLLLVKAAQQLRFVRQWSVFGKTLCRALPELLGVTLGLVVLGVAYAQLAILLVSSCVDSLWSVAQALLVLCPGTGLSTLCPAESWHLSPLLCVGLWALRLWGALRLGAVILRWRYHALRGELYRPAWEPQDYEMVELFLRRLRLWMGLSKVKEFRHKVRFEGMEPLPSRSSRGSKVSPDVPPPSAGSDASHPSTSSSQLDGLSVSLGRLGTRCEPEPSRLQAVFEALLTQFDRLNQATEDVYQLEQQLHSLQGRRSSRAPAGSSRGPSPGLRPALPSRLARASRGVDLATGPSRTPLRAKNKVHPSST
row,Variant,effect of a mutation on the interaction
1,L884H,disrupting interaction

# From IntAct's records for PubMed 10097141
